The record followed here is patent US20260151494A1 (ARO BIOTHERAPEUTICS, published 2026).

Positions count from the first letter of the chain named.

Experiment [1] addresses T1, apical domain of CD71 (Screen 3: 'cynomolgus apical domain of human CD71') (cynomolgus (as 'cynomolgus apical …)).
T1 construct: domain: apical domain; Species is told ambiguously
Nature of the experiment: primary ELISA screen, RLU on apical domain over RLU on HSA. (In general: ELISA stands for enzyme-linked immunosorbent assay.)

The target of experiment [2] is T2, human CD71 extracellular domain (human, UniProt P02786 89-760).
T2 construct: also called hCD71; human CD71-ECD
The experiment in a line: primary ELISA screen, human CD71-ECD. Note: test concentration or dose not given here.

Experiment [3] concerns the target T2, human CD71 extracellular domain. Nature of the experiment: primary ELISA screen, RLU on human CD71-ECD over RLU on HSA.
For experiment [4], the target named is T1, apical domain of CD71 (Screen 3: …). The experiment in a line: primary ELISA screen, apical domain of CD71. Note: test concentration or dose not given here.
Experiment [5] has as its target T3, human CD71 extracellular domain (human, UniProt P02786 89-760).
T3 construct: also called hCD71; CD71-ECD
The experiment in a line: primary ELISA screen, Screen 4; signal on hCD71 over signal on HSA.

For experiment [6], the target named is T4, apical domain of human CD71 (human, UniProt P02786 189-383, limits assumed).
T4 construct: domain: apical domain; Screen 4 panned against human apical domains; also called human apical domain
T4 sequence (P02786 189-383 limits assumed): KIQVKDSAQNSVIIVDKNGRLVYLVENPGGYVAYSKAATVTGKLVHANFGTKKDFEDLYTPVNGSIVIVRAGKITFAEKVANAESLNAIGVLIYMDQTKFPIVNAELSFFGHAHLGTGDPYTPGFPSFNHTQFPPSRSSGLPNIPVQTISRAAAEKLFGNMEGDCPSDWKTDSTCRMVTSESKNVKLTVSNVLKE
The experiment in a line: primary ELISA screen, Screen 4; signal on apical domain over signal on HSA.

The target in experiment [7] is T3, human CD71 extracellular domain. The experiment in a line: primary ELISA screen, Screen 4, luminescence. Note: test concentration or dose not given here.
Experiment [8] has as its target T4, apical domain of human CD71. Nature of the experiment: primary ELISA screen, Screen 4, luminescence. Note: test concentration or dose not given here.
The target of experiment [9] is human CD71 on cells (SKBR3; SW620-rLuc-KRAS) (human, UniProt P02786 1-760). Nature of the experiment: cell-based or functional assay.
Sequence of human CD71 on cells (SKBR3; SW620-rLuc-KRAS) (P02786 whole entry): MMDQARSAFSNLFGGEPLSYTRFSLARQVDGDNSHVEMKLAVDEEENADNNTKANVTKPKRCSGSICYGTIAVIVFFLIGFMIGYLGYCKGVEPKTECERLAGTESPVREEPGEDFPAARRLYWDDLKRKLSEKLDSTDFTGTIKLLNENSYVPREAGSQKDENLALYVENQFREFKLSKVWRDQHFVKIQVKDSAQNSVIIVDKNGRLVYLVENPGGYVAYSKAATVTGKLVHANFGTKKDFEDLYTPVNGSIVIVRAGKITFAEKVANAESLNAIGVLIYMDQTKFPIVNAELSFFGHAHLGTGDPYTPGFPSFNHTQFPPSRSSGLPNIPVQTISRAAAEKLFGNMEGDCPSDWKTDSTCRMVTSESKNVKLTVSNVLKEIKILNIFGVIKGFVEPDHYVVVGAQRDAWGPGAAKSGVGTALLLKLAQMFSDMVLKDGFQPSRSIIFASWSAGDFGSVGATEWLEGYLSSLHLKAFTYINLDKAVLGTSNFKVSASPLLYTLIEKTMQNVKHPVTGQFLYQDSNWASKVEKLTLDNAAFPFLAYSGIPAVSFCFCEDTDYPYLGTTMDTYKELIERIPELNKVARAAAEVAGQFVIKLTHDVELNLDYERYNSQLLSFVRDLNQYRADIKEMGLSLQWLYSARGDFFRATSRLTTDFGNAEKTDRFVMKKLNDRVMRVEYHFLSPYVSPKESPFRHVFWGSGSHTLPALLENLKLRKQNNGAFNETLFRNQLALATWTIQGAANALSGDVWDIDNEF

B1: CD71-binding FN3 domain of SEQ ID NO: 336 (designed binder)
chain: MSLPAPKNLVVSRVTEDSARLSWTAPDAAFDSFNIMYHEHYDNGEAIVLTVPGSERSYDLTGLKPGTEYSVVINGVKGGPHSAPLSAIFTT
notes: not shown: C-terminal poly-histidine tag added to each FN3 domain
B1: the “Apical domain:HSA” value in experiment [1] was 256 ratio. The RLU in experiment [2] is 1.15e+06 RLU; in [4], 4.31e+06 RLU. In addition, the “hCD71:HSA” value in experiment [3] was found to be 68 ratio.

B2: CD71-binding FN3 domain of SEQ ID NO: 546 (designed binder)
chain: MLPAPKNLVVSRVTEDSARLSWTAPDAAFDSFEIAYIEVNIQGEAIVLTVPGSERSYDLTGLKPGTEYYVHIGGVKGGPSSSPLSAIFTT
As to B2, in [5], the “hCD71:HSA” value stood at 374 ratio. For the same molecule, the “Apical domain:HSA” value in experiment [6] was found to be 466 ratio. The “hCD71, RLU” value in [7] came to 3.53e+06 RLU. Moreover, in [8], the “Apical domain, RLU” value worked out at 4.4e+06 RLU.

B3: CD71-binding FN3 domain of SEQ ID NO: 551 (designed binder)
chain: B2 chain with I37F, V39T, N40C, I41R, Q42T, Y69W, H71Q, P79N, S80W, S82A
For B3, the “hCD71:HSA” value in experiment [5] came out at 45 ratio. Besides, the “Apical domain:HSA” value in [6] was found to be 158 ratio. Also, the “hCD71, RLU” value in experiment [7] amounted to 1.17e+06 RLU. In addition, in [8], the “Apical domain, RLU” value was 4.07e+06 RLU.

B4: CD71-binding FN3 domain of SEQ ID NO: 340 (designed binder)
chain: MSLPAPKNLVVSRVTEDSSRLSWTAPDAAFDSFEIGYFENLYLGEAIVLTVPGSERSYDLTGLKPGTEYWVQIGGVKGGNWSAPLSAIFTT
notes: as for B1
For B4, in experiment [1], the “Apical domain:HSA” value turned out to be 180 ratio. The RLU was 3e+06 RLU in experiment [2] and 5.1e+06 RLU in [4]. The “hCD71:HSA” value in [3] was 106 ratio.

B5: CD71-binding FN3 domain of SEQ ID NO: 345 (designed binder)
chain: B4 chain with S19A, R20H, L41D, L43F, W70V, Q72F, N80K
notes: as for B1
With B5, the “Apical domain:HSA” value in [1] came to 195 ratio. The figures for the RLU in [2] and in experiment [4] were 2.55e+06 RLU and 4.59e+06 RLU, respectively. The “hCD71:HSA” value in experiment [3] came to 108 ratio.

B6: CD71-binding FN3 domain of SEQ ID NO: 344 (designed binder)
chain: B4 chain with V10F, S19A, F38W, L41A, L43K
notes: as for B1
As to B6, the “Apical domain:HSA” value in experiment [1] was 92 ratio. Also, the RLU was determined as 1.33e+06 RLU in experiment [2] and 3.4e+06 RLU in experiment [4]. Besides, in [3], the “hCD71:HSA” value was 36 ratio.

B7: CD71-binding FN3 domain of SEQ ID NO: 339 (designed binder)
chain: B4 chain with S19A, F38W, N40M, L41S, L43Y, W70G, Q72S, N80R, A83L
notes: as for B1
With B7, the “Apical domain:HSA” value in experiment [1] stood at 690 ratio. For the same molecule, the RLU worked out at 2.14e+06 RLU in experiment [2] and 4.86e+06 RLU in experiment [4]. In addition, the “hCD71:HSA” value in experiment [3] came out at 303 ratio.

B8: CD71-binding FN3 domain of SEQ ID NO: 338 (designed binder)
chain: B4 chain with S19A, W70C, Q72Y, G74C, N80R, W81D, A83M
notes: as for B1
B8: the “Apical domain:HSA” value in [1] was 125 ratio. Besides, the RLU came out at 2.29e+06 RLU in experiment [2] and 5.02e+06 RLU in experiment [4]. Further, in experiment [3], the “hCD71:HSA” value is 57 ratio.

B9: CD71-binding FN3 domain of SEQ ID NO: 373 conjugated to KRAS2 siRNA (designed binder)
chain: MLPAPKNLVVSRVTEDSARLSWTAPDAAFDSFFIGYLEPQPPGEAISLFVPGSERSYDLTGLKPGTEYNVTIQGVKGGFPSDPLVASFTT
modifications: conjugated to KRAS2 tool siRNA; site and linker not stated
B9: the “LSA EC50 (luciferase reporter assay, SW620-rLuc-KRAS cells, 72 h)” value (“LSA EC50” below) in experiment [9] was found to be 0.15 nM.

B10: CD71-binding FN3 domain of SEQ ID NO: 400 conjugated to KRAS2 siRNA (designed binder)
chain: B9 chain with S47H, D82G, V85H, S87T
modifications: conjugated to KRAS2 tool siRNA; site and linker not stated
For the molecule B10, the “LSA EC50” value in experiment [9] is 0.24 nM.

B11: CD71-binding FN3 domain of SEQ ID NO: 476 conjugated to KRAS2 siRNA (designed binder)
chain: B9 chain with S47H, F49Q, D82I, V85I, S87V
modifications: conjugated to KRAS2 tool siRNA; site and linker not stated
As to B11, the “LSA EC50” value in experiment [9] is 0.31 nM.

B12: CD71-binding FN3 domain of SEQ ID NO: 496 conjugated to KRAS2 siRNA (designed binder)
chain: B9 chain with S47I, F49W, D82V, V85I, S87Q
modifications: conjugated to KRAS2 tool siRNA; site and linker not stated
Turning to B12, in [9], the “LSA EC50” value stood at 0.22 nM.

B13: CD71-binding FN3 domain of SEQ ID NO: 529 conjugated to KRAS2 siRNA (designed binder)
chain: B9 chain with S47D, F49Y, D82L, V85Q, S87H
modifications: conjugated to KRAS2 tool siRNA; site and linker not stated
As for B13, the “LSA EC50” value in experiment [9] was determined as 0.52 nM.

B14: CD71-binding FN3 domain of SEQ ID NO: 516 conjugated to KRAS2 siRNA (designed binder)
chain: B9 chain with F49W, D82S, S87Y
modifications: conjugated to KRAS2 tool siRNA; site and linker not stated
Consider B14, for which the “LSA EC50” value in experiment [9] came out at 0.6 nM.

B15: CD71-binding FN3 domain of SEQ ID NO: 472 conjugated to KRAS2 siRNA (designed binder)
chain: B9 chain with S47E, F49Y, D82L, S87T
modifications: conjugated to KRAS2 tool siRNA; site and linker not stated
With B15, the “LSA EC50” value in experiment [9] is 0.15 nM.

B16: CD71-binding FN3 domain of SEQ ID NO: 447 conjugated to KRAS2 siRNA (designed binder)
chain: B9 chain with S47Y, F49Y, D82Y, V85T, S87Q
modifications: conjugated to KRAS2 tool siRNA; site and linker not stated
For B16, the “LSA EC50” value in [9] is 0.53 nM.

B17: CD71-binding FN3 domain of SEQ ID NO: 552 (designed binder)
chain: B9 chain with S47H, D82M, V85S, S87I
For B17, the “hCD71:HSA” value in experiment [5] came to 119 ratio. Also, the “Apical domain:HSA” value in experiment [6] is 137 ratio. For the same molecule, in experiment [7], the “hCD71, RLU” value is 4.95e+06 RLU. Besides, the “Apical domain, RLU” value in experiment [8] was 5.7e+06 RLU.

B18: CD71-binding FN3 domain of SEQ ID NO: 478 conjugated to KRAS2 siRNA (designed binder)
chain: B9 chain with S47H, F49Y, D82V, V85I, S87K
modifications: conjugated to KRAS2 tool siRNA; site and linker not stated
Take B18: the “LSA EC50” value in [9] was found to be 0.21 nM.

B19: CD71-binding FN3 domain of SEQ ID NO: 508 conjugated to KRAS2 siRNA (designed binder)
chain: B9 chain with S47T, F49S, D82E, V85I, S87I
modifications: conjugated to KRAS2 tool siRNA; site and linker not stated
As for B19, in [9], the “LSA EC50” value came out at 0.6 nM.

B20: CD71-binding FN3 domain of SEQ ID NO: 548 (designed binder)
chain: B9 chain with S47Y, D82M, V85S, S87I
Turning to B20, the “hCD71:HSA” value in experiment [5] amounted to 230 ratio. Besides, the “Apical domain:HSA” value in experiment [6] was determined as 257 ratio. In addition, the “hCD71, RLU” value in experiment [7] was found to be 4.73e+06 RLU. Moreover, in [8], the “Apical domain, RLU” value stood at 5.29e+06 RLU.

B21: CD71-binding FN3 domain of SEQ ID NO: 550 (designed binder)
chain: B9 chain with S47H, D82I, V85Y, S87R
Consider B21, for which the “hCD71:HSA” value in experiment [5] was determined as 141 ratio. For the same molecule, the “Apical domain:HSA” value in experiment [6] was 170 ratio. Also, the “hCD71, RLU” value in [7] turned out to be 4.79e+06 RLU. For the same molecule, the “Apical domain, RLU” value in experiment [8] is 5.8e+06 RLU.

B22: CD71-binding FN3 domain of SEQ ID NO: 549 (designed binder)
chain: B9 chain with F49W, D82M, V85S, S87I
As for B22, the “hCD71:HSA” value in experiment [5] was 198 ratio. The “Apical domain:HSA” value in [6] amounted to 242 ratio. In addition, the “hCD71, RLU” value in experiment [7] is 2.86e+06 RLU. Further, the “Apical domain, RLU” value in [8] came to 3.49e+06 RLU.

B23: CD71-binding FN3 domain of SEQ ID NO: 547 (designed binder)
chain: B9 chain with S47H, F49I
B23: in [5], the “hCD71:HSA” value was determined as 277 ratio. Also, in experiment [6], the “Apical domain:HSA” value came out at 322 ratio. The “hCD71, RLU” value in experiment [7] was determined as 4.59e+06 RLU. Besides, in [8], the “Apical domain, RLU” value came to 5.35e+06 RLU.
